Usually stoichiometry N stands for the number of molecules, sites or subunits per partner or assembly.

Our source for the stoichiometry N values is paper PMC11964946.

This test addresses Vicia altissima seed lectin (VICALTA) (Vicia altissima). The test is described as follows: native gel or EMSA; native PAGE on Mini-PROTEAN TGX 4%-20% precast gels (single band at 87 kDa), compared with SDS-PAGE (single band at 38 kDa); purified seed lectin. Background: Mobility shift assays separate free from complexed probe on a gel.

“Vicia altissima seed lectin (VICALTA) (natural protein)” registered a stoichiometry N of 2.
